Key:
[1] = target: DNA polymerase I (Escherichia coli) (UniProt P00582)
[2] = target: MBP-UmuC fusion protein (maltose binding protein fused to UmuC, DNA polymerase V) (Escherichia coli)
[3] = target: DNA polymerase III holoenzyme
[4] = target: DNA polymerase II (Escherichia coli) (UniProt P21189)

## RecA (from UniProt P0A7G6)
[1]
  Cro- mutation frequency after gap-filling replication by pol I with UmuD', RecA, SSB (Cro- mutation frequency per gene): 0.00078
[2]
  Cro- mutation frequency after in vitro gap-filling replication, RecA omitted (Cro- mutation frequency per gene): 0.00025
[3]
  Cro- mutation frequency after gap-filling replication by pol III holoenzyme with UmuD', RecA, SSB (Cro- mutation frequency per gene): 0.00081
[4]
  Cro- mutation frequency after gap-filling replication by pol II with UmuD', RecA, SSB (Cro- mutation frequency per gene): 0.00065

## SSB (single stranded DNA-binding protein) (from UniProt P0AGE0)
[1]
  Cro- mutation frequency after gap-filling replication by pol I with UmuD', RecA, SSB (Cro- mutation frequency per gene): 0.00078
[2]
  Cro- mutation frequency after in vitro gap-filling replication, SSB omitted (Cro- mutation frequency per gene): 0.00051
[3]
  Cro- mutation frequency after gap-filling replication by pol III holoenzyme with UmuD', RecA, SSB (Cro- mutation frequency per gene): 0.00081
[4]
  Cro- mutation frequency after gap-filling replication by pol II with UmuD', RecA, SSB (Cro- mutation frequency per gene): 0.00065

## UmuD' (from UniProt P0AG11)
[1]
  Cro- mutation frequency after gap-filling replication by pol I with UmuD', RecA, SSB (Cro- mutation frequency per gene): 0.00078
[2]
  Cro- mutation frequency after in vitro gap-filling replication, UmuD' omitted (Cro- mutation frequency per gene): 0.00027
[3]
  Cro- mutation frequency after gap-filling replication by pol III holoenzyme with UmuD', RecA, SSB (Cro- mutation frequency per gene): 0.00081
[4]
  Cro- mutation frequency after gap-filling replication by pol II with UmuD', RecA, SSB (Cro- mutation frequency per gene): 0.00065
